Measurements as given in patent US20100291155A1, “ALLERGY VACCINE COMPOSITION FOR MUCOSAL ADMINISTRATION” (ALK-Abello A/S, priority 2008, published 2010).
“Also recorded” adds a separate entry of the source.

Assays:
nDer p 1 [1] = molecular target: T1, nDer p 1 (Dermatophagoides pteronyssinus, UniProt P08176); format: biochemical, D. pteronyssinus
T1 construct: Der p 1 has only been found in its mature form in the D. pteronyssinus faecal particles; from tissue; host or cells: D. pteronyssinus mite material
T1 sequence (P08176 99-320): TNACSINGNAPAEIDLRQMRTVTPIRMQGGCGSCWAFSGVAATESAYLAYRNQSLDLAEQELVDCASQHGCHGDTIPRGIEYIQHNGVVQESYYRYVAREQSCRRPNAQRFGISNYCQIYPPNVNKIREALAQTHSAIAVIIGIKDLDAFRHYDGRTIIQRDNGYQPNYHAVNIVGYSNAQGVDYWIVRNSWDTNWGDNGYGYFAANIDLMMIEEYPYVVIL
Experimental: (§1) The enzymatic activity of nDer p 1 was evaluated using the peptide substrate Z-LLE linked to the fluorescent group AMC. […] When Der p 1 is added, it cleaves the bond between AMC and the peptide sequence and the fluorescence increases considerably. Therefore the product formation was evaluated in terms of increase in fluorescence.
(§2) All activity assays were performed on a Spectra Max instrument (GeminiXS Molecular Devises) at a temperature of 37° C. The fluorescence was measured using an excitation wavelength (λex) of 350 nm and emission wavelength (λem) of 450 nm. The Spectra Max instrument was set to automix before the first read and in between reads. The enzymatic activity was measured in RFU, relative fluorescent units. Using the software SoftMax® PRO 4.3 LS, the initial velocity of the reaction (V0) was estimated from the maximal slope of the progress curve.
(§3) Stock solutions of assay buffer (50 mM Tris (Sigma), 5 mM EDTA (Fluka)) and 1 M DTT (Merck) were made once and kept at +5° C. and −20° C. respectively. DTT was kept in aliquots of 55 μl, and when necessary DTT was added to the assay buffer just before use.
(§4) The total volume applied for each well in the micro titer plate (Corning, 96-well non-binding black polystyrene plate) amounted to 200 μl. The reaction was always started by the addition of 50 μl of 0.1 mM or 1 mM substrate diluted in assay buffer, and the fluorescence was measured continuously for 20-90 minutes.
It was evaluated whether nDer p 8, as a glutathione S-transferase, could catalyse the activation of nDer p 1 by GSH. In this assay, nDer p1 was kept at 1.3 μM and the GSH concentration at 100 μM (physiological concentration in the airways). nDer p 8 was added at four different concentrations: 0.4 μM, 0.6 μM, 0.8 μM and 1.2 μM. The last two components to be added to the well were GSH quickly followed by the substrate. The reaction was followed during 90 minutes.

nDer p 1 [2] = molecular target: T1, nDer p 1; assay: Proteolytic activity of purified nDer p 1 pools in presence or absence of E64 (Z-LLE-AMC substrate); format: biochemical, D. pteronyssinus; conditions: for enzymatic activity of Der p 1 pool: DTT as reducing agent, absence of E64, 0.1 mM Z-LLE-AMC, 37° C.
Experimental: as §1, §2, §3, §4
An enzymatic assay in the presence or absence of the cysteine protease specific inhibitor E64 was used in order to verify the identity of the purified protein as cysteine protease. One aliquot of nDer p 1 was pre-incubated for 1 hour at 37° C. with 25 μM E64 dissolved in assay buffer, while another aliquot was not. Afterwards the substrate was added at 0.1 mM concentration. The fluorescence was measured for 20 minutes. The concentration of nDer p 1 in the assay was 2.6 μM.

nDer p 1 [3] = molecular target: T1, nDer p 1; format: biochemical, D. pteronyssinus; remark: listed apart in the source
Experimental: as §1, §2, §3, §4
It was tested whether glutathione (GSH) could activate nDer p 1, and whether the activation was dose-dependent. The activity of 1.3 μM nDer p 1 was determined in the presence of different GSH concentrations of 0.5 mM, 1.0 mM, 5.0 mM, 10.0 mM and 25.0 mM. As a control, the activity was also measured in the presence of 5 mM DTT. The fluorescence was measured for 90 minutes.

[4] = system: confluent airway epithelial cells; conditions: in vitro, Wan et al. 1999; cited from earlier work
[5] = proteolytically active Der p 1 versus Der p 1 inactivated with E64, cited from earlier work
[6] = 0.1 mM GSH, nDer p 8 0.4-1.2 μM

## nDer p 8: glutathione S-transferase from Dermaphagoides pteronyssinus, 25589 Da, 219 amino acids
nDer p 1 [1]; 0.4 μM nDer p 8, 0.1 mM GSH
  time until activity differentiated from the test without nDer p 8: over 30 minutes
nDer p 1 [1]; 1.2 μM Der p 8, 0.1 mM GSH
  time after which activity increased: approximately 8 minutes
nDer p 1 [1]; 0.1 mM GSH, FIG. 6
  velocity of the reaction at the end of the assay versus nDer p 8 concentration: increases significantly
nDer p 1 [1]; [6]
  effect of Der p 8 on Der p 1 activity (activation by GSH): higher; also recorded: enhances the activation
  effect of Der p 8 on lag time of Der p 1 activation: shorter

## CC(C)C[C@H](NC(=O)[C@H]1O[C@@H]1C(=O)O)C(=O)NCCCCN=C(N)N (relative stereo) [E64, L-trans-epoxysuccinyl-leucylamido(4-guanidino)butane, reference compound]
nDer p 1 [2]; 25 μM E64, pre-incubated 1 hour at 37° C., 2.6 μM nDer p 1
  inhibition of nDer p 1 proteolytic activity: completely inhibited; also recorded: entirely inhibited

## N[C@@H](CCC(=O)N[C@@H](CS)C(=O)NCC(=O)O)C(=O)O [GSH, Glutathione]
nDer p 1 [1]; 0.1 mM GSH, no Der p 8
  Der p 1 activity when activated by GSH: very low
  lag time of Der p 1 activation: approximately 30 minutes
nDer p 1 [3]; 1.3 μM nDer p 1, GSH 0.5-25.0 mM, 90 minutes
  activation of nDer p 1 by GSH: dose-dependent
nDer p 1 [3]; 5.0 mM GSH
  time after which nDer p 1 activity evolves: approx. 8 minutes
nDer p 1 [3]; 10.0 mM GSH
  time after which nDer p 1 activity boosts: 6 min
nDer p 1 [3]; 25.0 mM
  time after which nDer p 1 activity increases notably: 3 min
nDer p 1 [3]; FIG. 4
  correlation between initial velocity of nDer p 1 activity and GSH concentration: approximate linear correlation
nDer p 1 [3]; GSH 0.1-0.5 mM (physiological concentrations in the airways)
  lag time of nDer p 1 activation (time required to detect enzyme activity): around 30 minutes
nDer p 1 [3]; control 5 mM DTT
  speed of nDer p 1 activation compared with DTT: slower than the activation by DTT

B1: nDer p 1: major house dust mite allergen, a 25371 Da papain-like cysteine protease purified from D. pteronyssinus (protein, UniProt P08176 99-320, looked up)
Peptidase 1: T1 sequence (P08176 99-320)
[4]
  effect on intercellular tight junctions: causes disruption of intercellular tight junctions
nDer p 1 [1]; 1.3 μM nDer p 1, substrate present, no reducing agent
  Der p 1 activity alone: no activity
[5]; mice
  lung inflammation: notably higher
[5]; sensitized mice, intranasal
  total IgE level in the circulation: significantly higher
nDer p 1 [3]; no GSH
  nDer p 1 activity when GSH is absent: no activity

B2: Pool 2: second flow-through peak of nDer p 1 from the SBTI-agarose column (protein, UniProt P08176 99-320, looked up)
Peptidase 1: T1 sequence (P08176 99-320)
modifications: SBTI-agarose flow-through pool 2
nDer p 1 [2]
  enzymatic activity of Der p 1 pool: did not show any activity
nDer p 1 [2]; listed as second pool
  enzymatic activity of Der p 1 pool: did not show any significant activity

B3: nDer p 1 pool 1: first flow-through peak of nDer p 1 from the SBTI-agarose column (protein, UniProt P08176 99-320, looked up)
Peptidase 1: T1 sequence (P08176 99-320)
modifications: SBTI-agarose flow-through pool 1
nDer p 1 [2]
  enzymatic activity of Der p 1 pool: there was activity
nDer p 1 [2]; listed as first pool
  enzymatic activity of Der p 1 pool: clear activity
